Measurements reported in article PMC7017188.
pIC50: −log10 of the molar value.

Molecular target: His-tagged eukaryotic initiation factor 6 (eIF6), full length recombinant (UniProt P56537)
Experiment: AlphaScreen or HTRF; competition: serial dilution of non-biotinylated 60S against the optimised assay (eIF6 75 nM, 60S-Bio 0.5 nM); PBS pH 7.4, 5 mM MgCl2, 0.2% BSA, 0.02% Tween-20; room temperature; normalised between 100% displacement (no eIF6) and 0% displacement

pIC50: 9.55
Substance: non-biotinylated 60S ribosomal subunit (complex)
